Measured values as given in article PMC10350030 (bioRxiv, 2023).

Target: biotin-Aβ42 (UniProt P05067 672-713, biotin (site not stated))
Test: single-molecule TIRF microscopy

Chain of biotin-Aβ42 (P05067 672-713): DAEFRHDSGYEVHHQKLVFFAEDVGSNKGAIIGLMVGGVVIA

- half-lifetime of transient binding: ~14.6 s
B1: Cy3-labeled ceruloplasmin (enzyme, human, UniProt P00450 20-1065, looked up)
chain: KEKHYYIGIIETTWDYASDHGEKKLISVDTEHSNIYLQNGPDRIGRLYKKALYLQYTDETFRTTIEKPVWLGFLGPIIKAETGDKVYVHLKNLASRPYTFHSHGITYYKEHEGAIYPDNTTDFQRADDKVYPGEQYTYMLLATEEQSPGEGDGNCVTRIYHSHIDAPKDIASGLIGPLIICKKDSLDKEKEKHIDREFVVMFSVVDENFSWYLEDNIKTYCSEPEKVDKDNEDFQESNRMYSVNGYTFGSLPGLSMCAEDRVKWYLFGMGNEVDVHAAFFHGQALTNKNYRIDTINLFPATLFDAYMVAQNPGEWMLSCQNLNHLKAGLQAFFQVQECNKSSSKDNIRGKHVRHYYIAAEEIIWNYAPSGIDIFTKENLTAPGSDSAVFFEQGTTRIGGSYKKLVYREYTDASFTNRKERGPEEEHLGILGPVIWAEVGDTIRVTFHNKGAYPLSIEPIGVRFNKNNEGTYYSPNYNPQSRSVPPSASHVAPTETFTYEWTVPKEVGPTNADPVCLAKMYYSAVEPTKDIFTGLIGPMKICKKGSLHANGRQKDVDKEFYLFPTVFDENESLLLEDNIRMFTTAPDQVDKEDEDFQESNKMHSMNGFMYGNQPGLTMCKGDSVVWYLFSAGNEADVHGIYFSGNTYLWRGERRDTANLFPQTSLTLHMWPDTEGTFNVECLTTDHYTGGMKQKYTVNQCRRQSEDSTFYLGERTYYIAAVEVEWDYSPQREWEKELHHLQEQNVSNAFLDKGEFYIGSKYKKVVYRQYTDSTFRVPVERKAEEEHLGILGPQLHADVGDKVKIIFKNMATRPYSIHAHGVQTESSTVTPTLPGETLTYVWKIPERSGAGTEDSACIPWAYYSTVDQVKDLYSGLIGPLIVCRRPYLKVFNPRRKLEFALLFLVFDENESWYLDDNIKTYSDHPEKVNKDDEEFIESNKMHAINGRMFGNLQGLTMHVGDEVNWYLMGMGNEIDLHTVHFHGHSFQYKHRGVYSSDVFDIFPGTYQTLEMFPRTPGIWLLHCHVTDHIHAGMETTYTVLQNEDTKSG
modifications: Cy3 label (site not stated)
